B1: 全人源抗小鼠RCN3蛋白单链ScFv抗体的噬菌体克隆 (scFv)
scFv: ELQMTQSPSSLSASVGDRVTITCQASQDITYHLNWYQQKPGKAPKLLIYDASNLVTGVPSRFSGSGSGTDFTVTISSLQPEDFATYYCQHYYNRPPTFGQGTRLEIKGGSSRSSSSGGGGSGGGGQVQLVQSGGGVVQPGRSLRLSCAASGFTFSSYGMHWVRQAPGKGLEWVAVISYDGSNKYYADSVKGRFTISRDNSKNTLYLQMNSLRAEDTAVYYCARDLGTHAFDIWGQGTMVTVSS
notes: The scFv stood on the surface of M13 phage in the assay; also called 单克隆噬菌体
B2: 全人源抗小鼠RCN3带有Fc标签的单链ScFv抗体 (Fc fusion)
scFv: B1 scFv
notes: also called ScFv-Fc抗体; 抗小鼠RCN3蛋白ScFv-Fc抗体; not shown: Fc tag from the eukaryotic expression vector pFUSERTL1

How the values were obtained:
[1] = biological target: T1, 小鼠重组RCN3蛋白 (mouse, UniProt Q8BH97 21-328, limits assumed); experiment: phage ELISA, plate coated with 3 μg/mL mouse RCN3 (GST and BSA as controls), HRP anti-M13
T1 construct: Recombinant mouse RCN3 used as coating antigen and in the Western blot; GST and BSA were run as control antigens; also called 小鼠RCN3蛋白; 重组小鼠RCN3蛋白
T1 sequence (looked up): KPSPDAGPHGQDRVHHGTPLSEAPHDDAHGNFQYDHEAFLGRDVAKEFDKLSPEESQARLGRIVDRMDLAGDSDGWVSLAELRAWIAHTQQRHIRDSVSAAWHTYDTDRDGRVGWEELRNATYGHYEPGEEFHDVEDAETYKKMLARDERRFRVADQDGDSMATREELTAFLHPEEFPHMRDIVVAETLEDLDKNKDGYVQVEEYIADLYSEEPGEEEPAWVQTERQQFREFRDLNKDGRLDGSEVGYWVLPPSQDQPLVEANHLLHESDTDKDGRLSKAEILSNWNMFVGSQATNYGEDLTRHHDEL

[2] = biological target: T1, 小鼠重组RCN3蛋白; experiment: ELISA, plate coated with 3 μg/mL mouse RCN3 (GST and BSA as controls), ScFv-Fc as first antibody, HRP goat anti-human IgG

Binder	binding result [1]	binding result [2]
B1	binds	–
B2	–	binds

Source: patent CN106749656A (UNIV ZHENGZHOU NORMAL, dated 2017)
